Measured values as given in paper doi:10.1101/2023.05.11.540447v1.

Columns and labels:
purified protein [1] = substrate: O=C(O)[C@H]1O[C@H](OP(=O)(O)OP(=O)(O)OC[C@H]2O[C@@H](n3ccc(=O)[nH]c3=O)[C@H](O)[C@@H]2O)[C@H](O)[C@@H](O)[C@@H]1O; assay: purified protein; conditions: UDP-GlcNAc fixed at 2.5 mM, Mg2+, 37 °C, GDN detergent
purified protein [2] = substrate: CC(=O)N[C@H]1[C@@H](OP(=O)(O)OP(=O)(O)OC[C@H]2O[C@@H](n3ccc(=O)[nH]c3=O)[C@H](O)[C@@H]2O)O[C@H](CO)[C@@H](O)[C@@H]1O; assay: purified protein; conditions: UDP-GlcA fixed at 2.5 mM, Mg2+, 37 °C, GDN detergent

B1: Xl-HAS-1 (Xenopus laevis) (protein)
chain: MKEKAAETMEIPEGIPKDLEPKHPTLWRIIYYSFGVVLLATITAAYVAEFQVLKHEAILFSLGLYGLAMLLHLMMQSLFAFLEIRRVNKSELPCSFKKTVALTIAGYQENPEYLIKCLESCKYVKYPKDKLKIILVIDGNTEDDAYMMEMFKDVFHGEDVGTYVWKGNYHTVKKPEETNKGSCPEVSKPLNEDEGINMVEELVRNKRCVCIMQQWGGKREVMYTAFQAIGTSVDYVQVCDSDTKLDELATVEMVKVLESNDMYGAVGGDVRILNPYDSFISFMSSLRYWMAFNVERACQSYFDCVSCISGPLGMYRNNILQVFLEAWYRQKFLGTYCTLGDDRHLTNRVLSMGYRTKYTHKSRAFSETPSLYLRWLNQQTRWTKSYFREWLYNAQWWHKHHIWMTYESVVSFIFPFFITATVIRLIYAGTIWNVVWLLLCIQIMSLFKSIYACWLRGNFIMLLMSLYSMLYMTGLLPSKYFALLTLNKTGWGTSGRKKIVGNYMPILPLSIWAAVLCGGVGYSIYMDCQNDWSTPEKQKEMYHLLYGCVGYVMYWVIMAVMYWVWVKRCCRKRSQTVTLVHDIPDMCV
Km (purified protein [1]): 370 µM | Km (purified protein [2]): 470 µM
